Experiment: yeast display, Sf9 membrane polyspecificity reagent, FACS + sequencing; frameworks hold sequencing errors
Summary of the method: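 Sorting gates, low and high (top ~1%), were placed on anti-HA fluorescence to track expression and on streptavidin fluorescence to track reagent binding. A clone's polyreactivity label is taken from the gate it came out of. The reagent was 10% biotinylated, detergent-solubilized Sf9 membrane, applied for 1 hour at 4 °C to galactose-induced yeast display cells.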
For “QVQLQESGGGLMQAGGSQRLSCAASGSISYYSDMAWYRQAPGKEREFVAGIGYGTSTNYADSVKGRFTTSRDNAKNTVYLQMISMKPEDTAVYYCAAYQGNGYEFYYWGQGTQVTVRS”, the “polyreactivity (PSR sort gate)” value was “low polyreactivity”.
In the case of “QVQLQESGGGLMQAGGSQRLSCAASGSISYYSDMGWYPQAPGKEREFVAGIGYGTTTNYADSVKGRFTTSRDNAKNTVYMQMISMKPEDTAVYYCAAYQGNGYEFYYWGQGTQVTVRS”, the “polyreactivity (PSR sort gate)” value is reported as “low polyreactivity”.
In the case of “QVQLQESGGGLVKAGGSLRLSCAASGYLILQYAMGWYRPAPGKERELVASIARGTSTYYADSVKGRFTISRDNAKNTVYLQMNSLKPEDTAVYYCAVIYSWGLWHDYWGQGTQVTVSS”, the “polyreactivity (PSR sort gate)” value is reported as “high polyreactivity”.
In the case of “QVQLQESGGGLVLAGGSLRLSCADSGYISWSFTMVWYRKAPGKEREFVAGITYGGITYYADSVKGRFTISRDNAKNTVYLQMNSLKPEDTAVYYCAAPQTYPYVYVYWGQGTQLTVSS”, the “polyreactivity (PSR sort gate)” value is reported as “high polyreactivity”.
In the case of “QVQLQESGGGLVLAGGSLRLSCSASGNISVYGSMGWYRQAPGKEREFVATIDPGTNTNYADSVKDRFTISRDNAKNTVYLQMTSLKPEDTAVYYCAVEAGSDGPYRYWGQGTQVTVSS”, the “polyreactivity (PSR sort gate)” value is reported as “low polyreactivity”.
In the case of “QVQLQESGGGLVQACGIQRLSCAATGSISEGQDMGWYSRSPGKERECVAGIAPGATTYYADSLKGRFTISRDNAKKTVYLQMTSLKPEDTAVYYCAARSVTETDHDYWGQGSQVTVSS”, the “polyreactivity (PSR sort gate)” value is reported as “low polyreactivity”.
In the case of “QVQLQESGGGLVQACGSLRLSCAASGNISPQLYMGWYRQAPGKEREFVADIAEGSTTYYAESVKGRFTISRDDAKNTVYLHMISLKSEDTAVYYCAARYENAESFYYWGQGSQVTVSS”, the “polyreactivity (PSR sort gate)” value is reported as “high polyreactivity”.
For “QVQLQESGGGLVQACGSQRLSCAASGSICEGQDMGWYRRAPGKEREFVAGIAPGATTYYADSVKGRFTISRDNAKNTVYLQMNSLKPEDTAVYYCAARSVTETDHDSWGQGTQVTVSS”, the “polyreactivity (PSR sort gate)” value was “low polyreactivity”.
For “QVQLQESGGGLVQAGGCLRLSCAASGTSFDPDYMGWYHQAPGKERELVASISLGRITYNADSVKGRFTINRDNAKNTVYLQMNSLKPEDTAVYYCAVRVETIYYYSYWGQGTQVTVSS”, the “polyreactivity (PSR sort gate)” value was “high polyreactivity”.
In the case of “QVQLQESGGGLVQAGGCLSCTASGTIFGQGDMGWYRQAPGKERELVATINDGASTYYADSVKGRFTISRDKAKNTVYLQKNSLKPDDTAGYYCAVFTDITTYFGYWGQGTQLTVSS”, the “polyreactivity (PSR sort gate)” value is reported as “low polyreactivity”.
With “QVQLQESGGGLVQAGGDLRLTCAASGNIFRDYIMGWYRQAPGKEREFVAGIDRGANTNYADSVKGRFTISRDNAKNTVYLQMNSLKPEDTAVYYCAVHTAIVPDFIYWGQGTQVTVSS” the “polyreactivity (PSR sort gate)” value was “low polyreactivity”.
With “QVQLQESGGGLVQAGGILRLSCAASGSIFHLHIMCWYRQEPGKERESVAAISNGTSTYYADSVKGRFTICRDNAKNTVYLQMNSPKPDDTAVYYCAALFLVSKHHHYWGEGTQVTVSS” the “polyreactivity (PSR sort gate)” value was “low polyreactivity”.
With “QVQLQESGGGLVQAGGSLCLSCAASGTIFFDGDMGWYRQAPGKEREFVAAINPGGSAYYADSVKGRLPLAAITHTVYLQMISLKPEDTAVYYCAAKLFDVYGYYYWGQGTHVTVSS” the “polyreactivity (PSR sort gate)” value was “low polyreactivity”.
For “QVQLQESGGGLVQAGGSLLSCAASGTISWDDEMGWYLQAPGNERELVAGIAGGGNTNYADSVKGRFTISRDNAKNTVYLQMNSLDTAVYYCAVVGFGRGTHIYWGQGTQVTVSS”, the “polyreactivity (PSR sort gate)” value was “high polyreactivity”.
With “QVQLQESGGGLVQAGGSLLSCAASGTISWVDEMGWYLQAPGNERELVAGIAGGGNTNYADSVKGRFTISRDNAKNTVYLQMNSLDTAVYYCAVVGFGRGTHIYWGQGTQVTVSS” the “polyreactivity (PSR sort gate)” value was “high polyreactivity”.
With “QVQLQESGGGLVQAGGSLLSCAASGTISWVDEMGWYRQAPGNERELVAGIAGGGNTNYADSVKGRFTISRDNAKNTVYLQMNSLDTAVYYCAVVGFGGGTHIYWGQGTQVTVSS” the “polyreactivity (PSR sort gate)” value was “high polyreactivity”.
In the case of “QVQLQESGGGLVQAGGSLLSCAASGTISYYREMGWYRQAPGKERELVAGIGVGTITYYADSVKGRFTISRDNAKNTVYLQMNSLKPEATAVYYCAAHIDGNDSHAYWGQGTQVTVSS”, the “polyreactivity (PSR sort gate)” value is reported as “low polyreactivity”.
With “QVQLQESGGGLVQAGGSLLSCAASGTISYYREMGWYRQAPGKERELVAGIGVGTITYYADSVKGRFTISRHNAINTVYMQMNSLKPEDTAVYYCAAHIDGNDSHAYWGQGTQVTVSS” the “polyreactivity (PSR sort gate)” value was “low polyreactivity”.

Reference: the nanobody polyreactivity screen of Harvey et al. (2022)
